These results are taken from patent publication US20090253152A1 (OREGON HEALTH AND SCIENCE UNIVERSITY, published 2009).

Ends that are not written are not given here.

The test has as its target T1, insulin-like growth factor I (IGF-I) (human, UniProt P05019 49-118, 125I-labelled in the ligand blots, affinity cross-linking and solution binding assay; unlabelled in BIAcore).
T1 construct: Human is stated only for the BIAcore material (rhIGF-I); also called rhIGF-I
Nature of the test: dot ligand blot: E. coli GST-fusion lysate dotted on nitrocellulose, probed with 125I-IGF-I; anti-GST dot immunoblot as loading control. The protocol:
For dot blots, 2.5 μl of sample were dotted directly onto the nitrocellulose membrane. The membranes were then blocked for 1 h at 21° C. in 4% milk/TBS-T, followed by an overnight incubation at 4° C. with anti-IGFBP-3 monoclonal antibody (Diagnostic Systems Laboratories, Inc., Webster, Tex.), anti-GST polyclonal antibody (Amersham Pharmacia Biotech, Piscataway, N.J.), anti-PY20 monoclonal antibody (Santa Cruz Biotech, Santa Cruz, Calif.), or anti-IRS-1 polyclonal antibody (Upstate, Lake Placid, N.Y.), all at 1:3000 dilutions. Membranes were washed with TBS-T and incubated for 1 h at 21° C. with a 1:3000 dilution of horseradish peroxidase-linked antirabbit or antimouse IgG secondary antibodies (Amersham Pharmacia Biotech, Piscataway, N.J.). Proteins were detected by enhanced chemiluminescence reagents, according to the manufacturer's protocol (NEN Life Science Products, Boston, Mass.).
Lane 1, ⁽¹⁻⁴⁶⁾IGFBP-3; lane 2, ⁽¹⁻⁷⁵⁾IGFBP-3; lane 3, ⁽¹⁻⁸⁰⁾IGFBP-3; lane 4, ⁽¹⁻⁸⁷⁾IGFBP-3; lane 5, full-length IGFBP-3; lane 6, pGEX4T-1 vector alone. The binding of these IGFBP-3 “deletion” fragments to [¹²⁵I]-IGF-I is shown, along with wild-type IGFBP-3 binding, and control vector (pGEX4T-1) to [¹²⁵I]-IGF-I. For each protein sample, the protein extract was directly pipetted onto nitrocellulose paper, incubated in 1% BSA with [¹²⁵I]-IGF-I, and then exposed to film. […]

T1 sequence (P05019 49-118 limits assumed): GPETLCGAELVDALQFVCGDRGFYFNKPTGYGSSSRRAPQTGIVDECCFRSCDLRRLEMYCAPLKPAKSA

B1: (1-46)IGFBP-3 FLAG-tagged fragment, GST-fusion (E. coli) (other, human)
chain: GASSAGLGPVVRCEPCDARALAQCAPPPAVCAELVREPGCGCCLTCDYKDDDDK
modifications: cysteine pairing not given here; also: GST fusion with the vector's linker, linker sequence and fusion end not given here
notes: range 1-46; Tested as crude E. coli cell lysate; not shown: glutathione S-transferase encoded by vector pGEX4T-1, with the vector's linker
Take B1: the binding result is recorded as “no binding”.
